We go through 16 molecules from PMC10720262 (Cell Reports, 2023).

The labels stand for the following.
B1: Ky15.2 (antibody, V domains shown)
VH: QVLLVESGGGVVQPGTSLRLSCVASGFSFSTYGMHWVRQSPGKGLEWVAIIWYDGGNKFYADSVQGRFTVSRDNSKNTLYLQMNSLRAEDTAVYYCAKAYRTSLDKKYGMDVWGQGTTVTVSS
VL: DIQMTQSPSTLSASVGDRVTITCRASQSIASWLAWYQQKPGKAPKLLIYKASSLESGVPSRFSGSGSGTEFTLTISSLHPDDFATYFCQQFTSYWTFGQGTKVEIK
notes: source: CHO-3E7, purified (MabSelect SuRe LX)
B2: Ky315 (antibody, V domains shown)
VH: QVQLVESGGGVVQPGRSLRLSCAASGFTLSNYGVHWVRQAPGTGLEWVALIWYDGSNKFYADSVKGRFTISRDNSMDIVYLQMNNLRAEDTALYYCVRPGIAAAGSNYYAMDVWGQGTAVTVSS
VL: EIVMTQSPATLSMSPGERATLSCRASQSVGSDLAWFQQKPGQAPRLLIYGAFTRATGIPARFSGSGSGSEFTLTISSLQSEDFAVYYCQQYNRWWTFGQGTKVEMK
notes: as for B1
B3: Ky15.5 (antibody, V domains shown)
VH: QVQMVASGGGVVQPGRSLRLSCAVSGFTFRNFGMHWVRQDPGRGLEWVAIIWYDGSYEFYADSVKGRFTISRDNSKNTLYLQMNSLRAEDTAVYYCARSYGSLTGDETKYGMDVWGQGTTVTVSS
VL: DIQMTQSPSTLSASVGDRVTITCRASQSISSWLAWFQQKPGKAPKLLIYKASSLESGVPSRFSGSGSGTEFTLTISSLQPDDFATYYCQQYKNYWTFGQGTKVEIK
notes: as for B1
B4: Ky311 (antibody, V domains shown)
VH: QMHLVESGGGVVQPGRSLRLSCVASGFTFNNHGMHWVRQAPGKGLEWVAVIWHDGSNKFYADSVNGRFIVSRDNSKNTLYLHMNSLRAEDTAVYYCARDFFVSGSYNYFDPWGQGTLVTVSS
VL: EIVLTQSPVTLSLSPGERATLSCRASQSVSNYLAWYQQKPGQAPRLLIYDAANRATGTPARFSGSGSGTDFTLTISSLEPEDFAVYFCQQRSKWFTFGPGTKLDIK
notes: as for B1
B5: Ky15.3 (antibody, V domains shown)
VH: QVQLVESGGGVVQPGRSLRLSCVASGFTFSNAGMHWVRQTPGKGLEWVAIIWYDGSIKYYGESVKGRFTISRDNSKNTLYLEMSSLRAEDTAVYFCVRAYSGSLYDKYGMDVWGQGTTVIVSS
VL: DIQMTQSPSTLSASVGDRVTISCRASQTISTWLAWFQQKPGKAPKLLIYAASSLQSGVPSRFSGSGSGTDFTLTISNLQPDDFATYYCQQFNSYWTFGQGTKVEIK
notes: as for B1
B6: mAb Ky230 (human IgG1) (antibody, V domains shown)
VH: QVQLVESGGGVVQPGRSLRLSCAASGFTFSDYGMHWVRQAPGKGLEWVAIIWHDGSNKYYVDSVKGRFTISRDNSKNTLYLQMNSLRAEDTAVYYCARAASSFGSGFDYWGQGTLVTVSS
VL: DVVMTQSPLSLPVTLGQPASIFCRSSQSLVYSDGNTYLNWFQRRPGQSPRRLIYKVSDRDSGVPDRFSGSGSGTDFTLQISRVEAEDVGVYYCMQGTHWPPTFGQGTKVEIK
B7: mAb Ky15.2 (human IgG1) (antibody, V domains shown)
VH: QVLLVESGGGVVQPGTSLRLSCVASGFSFSTYGMHWVRQSPGKGLEWVAIIWYDGGNKFYADSVQGRFTVSRDNSKNTLYLQMNSLRAEDTAVYYCAKAYRTSLDKKYGMDVWGQGTTVTVSS
VL: DIQMTQSPSTLSASVGDRVTITCRASQSIASWLAWYQQKPGKAPKLLIYKASSLESGVPSRFSGSGSGTEFTLTISSLHPDDFATYFCQQFTSYWTFGQGTKVEIK
B8: mAb Ky15.11 (human IgG1) (antibody, V domains shown)
VH: QVQLVESGGGVVQPGRSLRLSCEASGFTFSNFGMHWVRQTPVKGLEWVAIIWFDGSYKYYTDSVKGRFTISRDNSKNTLYLQMNSLRAEDTAVYYCARARKGQRSDYYGSETSYTFDNWGQGTLVTVSS
VL: DIQMTQSPSTLSASVGDRVTITCRASQSINGWLAWYQQKPGKAPKFLIYKASILESGIPSRFSGSGSGTEFTLTISSLQPDDFATYYCQQYSSYWTFGQGTKVEIK
B9: mAb Ky15.7 (human IgG1) (antibody, V domains shown)
VH: QVQVVESGGGAVQPGRSLRLSCAASGFTFSNRGMHWVRQTPGKGLEWVAIIWYDGGNKFYADSVKGRFTISRDNSKNTLYLQMNSLRDEDTAVYYCVRAGDWKADKYTMDVWGQGTTVTVSS
VL: DIQMTQSPSTLSASVGDRVTITCRASQSISSWLAWYQQKPGKAPKVLIYQASSLESGVPSRFSGSGSGTEFTLTISSLQPDDFATYYCQQYNSYWTFGQGTKVEIK
B10: mAb Ky15.10 (human IgG1) (antibody, V domains shown)
VH: QVQLVESGGGVVQPGRSLRLSCAASGFTFSNSGMHWVRQVPGKGLEWVAIIWYDGSNKYYADSVKGRFSVSRDNSENTLYLQMSNLRAEDTAVYYCVRAYFDSENLYDYYGMDVWGQGTTVTVSS
VL: DIQMTQSPSTLSASVGDRVTITCRASQSISRWLAWFQKKPGKAPKLLIYTASNLESGVPSRFSGSGSGTEFTLTISSLQPDDFATYYCQQYYNYWTFGQGTKVEVK
B11: mAb Ky315 (human IgG1) (antibody, V domains shown)
VH: QVQLVESGGGVVQPGRSLRLSCAASGFTLSNYGVHWVRQAPGTGLEWVALIWYDGSNKFYADSVKGRFTISRDNSMDIVYLQMNNLRAEDTALYYCVRPGIAAAGSNYYAMDVWGQGTAVTVSS
VL: EIVMTQSPATLSMSPGERATLSCRASQSVGSDLAWFQQKPGQAPRLLIYGAFTRATGIPARFSGSGSGSEFTLTISSLQSEDFAVYYCQQYNRWWTFGQGTKVEMK
B12: mAb Ky15.8 (human IgG1) (antibody, V domains shown)
VH: QVQLVESGGNVVQPGRSLRLSCTASGFTFSSYGMHWVRQAPDKGLEWVAIIWYDGGNKFYADSVKGRFTISRDNSKDTLYLQMNSLRAEDTAVYYCAKAWYKIDDKYSMDVWGQGTTVTVSS
VL: not shown
B13: mAb Ky15.1 (human IgG1) (antibody, V domains shown)
VH: QVQLVESGGGVVQPGRSLRLSCAASGFTFSNFGMHWVRQTPDRGLEWVAIIWFDGSNTFYADSVKGRFTISRDNYKNTLYLQMNSLRAEDTAVYFCARSFYSDSAGSLFDYWGQGTLVTVSS
VL: DIQMTQSPSTLSASVGDRVTITCRASQSISSWVAWYQQKPGKAPKLLIYKASDLETGVPSRFSGSGSGTEFTLTISGLQPDDFVTYYCLQNMRYWTFGQGTKVEIK
B14: mAb Ky15.5 (human IgG1) (antibody, V domains shown)
VH: QVQMVASGGGVVQPGRSLRLSCAVSGFTFRNFGMHWVRQDPGRGLEWVAIIWYDGSYEFYADSVKGRFTISRDNSKNTLYLQMNSLRAEDTAVYYCARSYGSLTGDETKYGMDVWGQGTTVTVSS
VL: DIQMTQSPSTLSASVGDRVTITCRASQSISSWLAWFQQKPGKAPKLLIYKASSLESGVPSRFSGSGSGTEFTLTISSLQPDDFATYYCQQYKNYWTFGQGTKVEIK
B15: mAb Ky311 (human IgG1) (antibody, V domains shown)
VH: QMHLVESGGGVVQPGRSLRLSCVASGFTFNNHGMHWVRQAPGKGLEWVAVIWHDGSNKFYADSVNGRFIVSRDNSKNTLYLHMNSLRAEDTAVYYCARDFFVSGSYNYFDPWGQGTLVTVSS
VL: EIVLTQSPVTLSLSPGERATLSCRASQSVSNYLAWYQQKPGQAPRLLIYDAANRATGTPARFSGSGSGTDFTLTISSLEPEDFAVYFCQQRSKWFTFGPGTKLDIK
B16: mAb Ky15.3 (human IgG1) (antibody, V domains shown)
VH: QVQLVESGGGVVQPGRSLRLSCVASGFTFSNAGMHWVRQTPGKGLEWVAIIWYDGSIKYYGESVKGRFTISRDNSKNTLYLEMSSLRAEDTAVYFCVRAYSGSLYDKYGMDVWGQGTTVIVSS
VL: DIQMTQSPSTLSASVGDRVTISCRASQTISTWLAWFQQKPGKAPKLLIYAASSLQSGVPSRFSGSGSGTDFTLTISNLQPDDFATYYCQQFNSYWTFGQGTKVEIK

One test deals with T1, NANP6 peptide (Plasmodium falciparum NF54).
T1 construct: source: synthetic peptide (CPC Scientific)
As to the kind of experiment: SPR; Carterra LSA; mAb amine-coupled to a CMD200M chip, peptide titrated in 2-fold steps up to 8 ug/mL without regeneration; 25 C; HBSTE (10 mM HEPES pH 7.4, 150 mM NaCl, 3 mM EDTA, 0.01% Tween 20); 1:1 Langmuir model; mean of triplicates; KD includes avidity for antigens with several repeats. Conditions: both partners purified. (In general: SPR reads the build-up and loss of mass on a sensor chip optically.)
Consider B1, for which the Kd is 0.0713 nM.
Same read-out and setting: next, B2: 0.0723 nM; B3: at most 0.0369 nM; B4: at most 0.0233 nM.
Molecule B5 gave a Kd of at most 0.0174 nM.

A further test deals with recombinant full-length PfCSP (Plasmodium falciparum circumsporozoite protein, strain NF54) (Plasmodium falciparum NF54, UniProt P19597). As to the kind of experiment: cell-based or functional assay.
Chain of recombinant full-length PfCSP (Plasmodium falciparum circumsporozoite protein, strain NF54) (P19597 20-375): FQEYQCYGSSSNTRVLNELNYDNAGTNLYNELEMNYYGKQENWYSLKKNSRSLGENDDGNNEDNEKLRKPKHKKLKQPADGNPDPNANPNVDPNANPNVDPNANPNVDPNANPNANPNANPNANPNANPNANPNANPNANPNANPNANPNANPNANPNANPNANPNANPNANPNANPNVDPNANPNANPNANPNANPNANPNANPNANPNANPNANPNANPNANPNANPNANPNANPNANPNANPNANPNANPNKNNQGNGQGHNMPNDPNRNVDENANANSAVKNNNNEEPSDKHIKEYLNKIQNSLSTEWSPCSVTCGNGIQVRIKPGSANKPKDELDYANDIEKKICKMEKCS
Details: not given
As for B6, the other was under 1.5 µg/mL.
The same measure, in the same setting: the figure for B7 is under 1.5 µg/mL; for B8 it is under 1.5 µg/mL; for B9 it is under 1.5 µg/mL.
Same read-out and setting: the figure for B10 is under 1.5 µg/mL.
For B11, the other was under 1.5 µg/mL.
Same read-out and setting: the figure for B12 is under 1.5 µg/mL; for B13 it is under 1.5 µg/mL; for B14 it is under 1.5 µg/mL.
Still for that read-out and setting: next, B15: under 1.5 µg/mL.
Still for that read-out and setting: next, B16: under 1.5 µg/mL.
